Data reported in publication PMC8686788 (Science (New York, N.Y.), 2021).
Numbering of substitutions follows the chain as printed. Names and notes keep the numbering of the source. Like-named read-outs stand apart in the source and are kept apart here. Blank lines part the entries; values can stand above or below the binder they belong to.

How the values were obtained:
Assay in all cases: fluorescence polarisation
KaiC [1] = molecular target: T1, KaiC (Synechococcus elongatus, UniProt Q79PF4 1-519)
T1 sequence (looked up): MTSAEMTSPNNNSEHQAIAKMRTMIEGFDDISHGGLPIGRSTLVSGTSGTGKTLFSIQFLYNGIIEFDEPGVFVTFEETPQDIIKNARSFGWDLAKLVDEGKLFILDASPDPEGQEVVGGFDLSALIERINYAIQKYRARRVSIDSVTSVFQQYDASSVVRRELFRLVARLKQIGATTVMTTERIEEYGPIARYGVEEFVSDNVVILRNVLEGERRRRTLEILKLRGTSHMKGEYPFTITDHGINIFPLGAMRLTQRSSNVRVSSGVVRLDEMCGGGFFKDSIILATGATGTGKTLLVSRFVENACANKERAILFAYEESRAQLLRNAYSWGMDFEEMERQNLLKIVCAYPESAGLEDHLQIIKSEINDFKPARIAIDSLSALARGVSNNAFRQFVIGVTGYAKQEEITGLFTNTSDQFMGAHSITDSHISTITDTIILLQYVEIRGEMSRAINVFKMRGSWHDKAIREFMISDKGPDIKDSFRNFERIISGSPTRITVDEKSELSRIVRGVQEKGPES

KaiC [2] = molecular target: T1, KaiC; remark: listed apart in the source
KaiC-EA = molecular target: T2, KaiC-EA (Synechococcus elongatus, UniProt Q79PF4 1-519, S431E (KaiC-EA) | T432A (KaiC-EA))
T2 sequence (looked up): T1 sequence (looked up) with S431E, T432A

[3] = molecular target: T3, circadian input kinase A, CikA (Synechococcus elongatus, UniProt Q9KHI5 1-754, fluorescent probe attached by sortase A-mediated ligation)
T3 sequence (looked up): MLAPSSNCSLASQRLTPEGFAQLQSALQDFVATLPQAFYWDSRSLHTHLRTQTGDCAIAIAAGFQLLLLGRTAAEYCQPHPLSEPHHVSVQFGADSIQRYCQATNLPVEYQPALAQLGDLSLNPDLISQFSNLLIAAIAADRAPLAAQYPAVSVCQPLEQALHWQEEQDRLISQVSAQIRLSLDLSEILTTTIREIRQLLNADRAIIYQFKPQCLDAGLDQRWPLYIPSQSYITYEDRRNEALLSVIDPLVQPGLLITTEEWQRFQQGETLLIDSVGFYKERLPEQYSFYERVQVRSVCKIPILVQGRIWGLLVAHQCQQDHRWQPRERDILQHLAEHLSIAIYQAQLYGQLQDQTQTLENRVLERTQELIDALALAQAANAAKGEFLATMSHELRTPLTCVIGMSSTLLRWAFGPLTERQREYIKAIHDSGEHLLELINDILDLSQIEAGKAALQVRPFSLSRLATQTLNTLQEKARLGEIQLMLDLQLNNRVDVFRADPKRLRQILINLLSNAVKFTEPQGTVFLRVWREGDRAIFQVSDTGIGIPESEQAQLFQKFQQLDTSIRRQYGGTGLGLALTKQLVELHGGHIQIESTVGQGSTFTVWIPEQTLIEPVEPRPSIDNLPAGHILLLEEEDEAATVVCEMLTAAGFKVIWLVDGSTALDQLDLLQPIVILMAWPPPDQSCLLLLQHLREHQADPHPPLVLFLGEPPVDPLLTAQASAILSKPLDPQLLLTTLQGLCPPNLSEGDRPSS

binding result (KaiC [1]): binds
B1: KaiA (natural protein, Synechococcus elongatus, UniProt Q79PF6 1-284, looked up)
chain: MLSQIAICIWVESTAILQDCQRALSADRYQLQVCESGEMLLEYAQTHRDQIDCLILVAANPSFRAVVQQLCFEGVVVPAIVVGDRDSEDPDEPAKEQLYHSAELHLGIHQLEQLPYQVDAALAEFLRLAPVETMADHIMLMGANHDPELSSQQRDLAQRLQERLGYLGVYYKRDPDRFLRNLPAYESQKLHQAMQTSYREIVLSYFSPNSNLNQSIDNFVNMAFFADVPVTKVVEIHMELMDEFAKKLRVEGRSEDILLDYRLTLIDVIAHLCEMYRRSIPRET
modifications: fluorescent probe attached by sortase A-mediated ligation

binding result (KaiC [2]): binds
B2: SasA-H28A-Q94A (enzyme, Synechococcus elongatus, UniProt Q06904 1-387, looked up)
chain: MGESLSPQALAQPLLLQLFVDTRPLSQAIVQRVKNILAAVEATVPISLQVINVADQPQLVEYYRLVVTPALVKIGPGSRQVLSGIDLTDQLANALPQWLVQQEAFFADREPPEVNIPFTELGQPETPALQQADAFFQLQQQYADLSERTKFLEQVIALVAHDLRNPLTAALLAVDTIQIRSQSFSVATAKEMQGLCSLFDQARSQLREIERMIAEILEATRHSGESLRINPREVVFEPLLQQVLEQLHERWRSKQQQLITDVPGDLPTLYADPDRLRQVLVNLLDNAIKYTPPGGTITIAALHRTSQKVQISISDTGSGIPRDQLSVIFKNLVRLSRDSSQEGYGIGLSVCQRIVQAHFGRIWVASELGQGSTFHFTMPVYRYTMPC

binding result (KaiC-EA): binds | binding result (KaiC [1]): binds
B3: KaiB (natural protein, Synechococcus elongatus, UniProt Q79PF5 1-102, looked up)
chain: MSPRKTYILKLYVAGNTPNSVRALKTLKNILEVEFQGVYALKVIDVLKNPQLAEEDKILATPTLAKVLPLPVRRIIGDLSDREKVLIGLDLLYGELQDSDDF
modifications: fluorescent probe attached by sortase A-mediated ligation

binding result [3]: binds
B4: KaiB-KaiC complex (complex, Synechococcus elongatus)
chain 1: B3 chain
chain 2: T1 sequence (looked up)
